# Source: US12649008B2, “Peptide receptor radionuclide therapy” (The Regents of the University of California, priority 2020, dated 2026)
# Read-outs that look alike come from different tables or passages of the source.
# Columns and labels:
# BxPC-3 (αvβ6 (+)) tumors = assay: Biodistribution in mice bearing BxPC-3 tumors; type: in vivo
# Procedure: (§1) Female nu/nu nude mice (6-8 weeks old) were purchased from Charles River Laboratories (Wilmington, MA, USA) and handled according to the UC Davis Institutional Animal Care and Use Committee. BxPC-3 cells (5×10^6) in 100 μl 1:1 GFR-Matrigel: serum-free RPMI were implanted subcutaneously into the left shoulder flank and allowed to grow for approximately 2 weeks (therapy study) and 3 weeks (0.5-1 cm in diameter, for imaging and biodistribution studies). All cells were evaluated with flow cytometry before injection to confirm integrin expression levels. Food and water were available ad libitum.
# (§2) For blocking studies, respective non-chelated cold peptide (30 mg/kg, 10 mg/mL (DOTA-5G) and 48 mg/kg, 16 mg/mL (DOTA-ABM-5G) solution in PBS) was injected 10 min. before the formulated radiotracer. At each time point, the mice (n=3/time point/radiotracer) were anesthetized and sacrificed. The tissues were collected, rinsed with PBS, and the radioactivity of each measured with a gamma counter. Radioactivity concentrations were calibrated, decay-corrected, and expressed as percent of injected dose per gram of tissue (% ID/g).
# [1] = Biodistribution in mice bearing BxPC-3 tumors; type: in vivo; settings: female, nu/nu nude, mouse, iv, total radioactivity; for tissue uptake at 1 h: 1 h p.i.; for tissue uptake at 4 h: 4 h p.i.; for tissue uptake at 24 h: 24 h p.i.; for tissue uptake at 48 h: 48 h p.i.; for tissue uptake at 72 h: 72 h p.i.
# Procedure: as §1, §2
# [2] = BxPC-3 tumor, read-out: uptake BxPC-3 tumor
# [3] = bladder, read-out: uptake Bladder
# [4] = gall bladder, read-out: uptake Gall Bladder
# [5] = kidneys, read-out: uptake Kidneys
# [6] = large intestines, read-out: uptake Lg Intestines
# [7] = muscle, read-out: uptake Muscle
# [8] = pancreas, read-out: uptake Pancreas
# [9] = small intestines, read-out: uptake Sm Intestines
# [10] = spleen, read-out: uptake Spleen
# [11] = stomach, read-out: uptake Stomach
compound,measurement,setting,value
CNC(=O)C(CCCCNC(=O)C(CC(=O)O)NC(=O)CCCNC(=O)CCCc1ccc(I)cc1)NC(=O)CN1CCN2CCN3CCN(CC1)CC(=O)[O][177Lu]([O]C(=O)C2)[O]C(=O)C3 (centres unmarked) [[^177Lu]Lu DOTA-ABM-5G],BxPC-3/kidney ratio,BxPC-3 (αvβ6 (+)) tumors; 1 h p.i.,0.22±0.05
same,BxPC-3/large intestine ratio,BxPC-3 (αvβ6 (+)) tumors; 1 h p.i.,0.77±0.25
same,BxPC-3/stomach ratio,BxPC-3 (αvβ6 (+)) tumors; 1 h p.i.,0.50±0.08
same,uptake Blood,BxPC-3 (αvβ6 (+)) tumors; 1 h p.i.,5.36±0.71 % ID/g
same,uptake BxPC-3 tumor,BxPC-3 (αvβ6 (+)) tumors; 1 h p.i.,4.54±0.42 % ID/g
same,uptake Kidneys,BxPC-3 (αvβ6 (+)) tumors; 1 h p.i.,20.89±3.1 % ID/g
same,uptake Stomach,BxPC-3 (αvβ6 (+)) tumors; 1 h p.i.,9.16±0.58 % ID/g
same,BxPC-3/kidney ratio,BxPC-3 (αvβ6 (+)) tumors; 72 h p.i.,0.60±0.02
same,BxPC-3/large intestine ratio,BxPC-3 (αvβ6 (+)) tumors; 72 h p.i.,1.77±0.26
same,BxPC-3/stomach ratio,BxPC-3 (αvβ6 (+)) tumors; 72 h p.i.,1.16±0.30
same,uptake Blood,BxPC-3 (αvβ6 (+)) tumors; 72 h p.i.,0.01±0.00 % ID/g
same,uptake BxPC-3 tumor,BxPC-3 (αvβ6 (+)) tumors; 72 h p.i.,5.29±0.75 % ID/g
same,uptake Kidneys,BxPC-3 (αvβ6 (+)) tumors; 72 h p.i.,8.84±1.15 % ID/g
same,uptake Stomach,BxPC-3 (αvβ6 (+)) tumors; 72 h p.i.,4.76±1.22 % ID/g
same,uptake in BxPC-3 tumor as compared to [^177Lu]Lu DOTA-5G,BxPC-3 (αvβ6 (+)) tumors; at all times (1-72 h),at least 4 fold
same,tissue uptake at 1 h,[1]; [2],4.54 ± 0.42 %ID/g
same,tissue uptake at 4 h,[1]; [2],7.15 ± 3.04 %ID/g
same,tissue uptake at 24 h,[1]; [2],5.25 ± 0.71 %ID/g
same,tissue uptake at 48 h,[1]; [2],5.12 ± 0.47 %ID/g
same,tissue uptake at 72 h,[1]; [2],5.29 ± 0.75 %ID/g
same,tissue uptake at 1 h,[1]; [3],6.75 ± 2.39 %ID/g
same,tissue uptake at 24 h,[1]; [3],2.91 ± 0.16 %ID/g
same,tissue uptake at 48 h,[1]; [3],2.69 ± 0.33 %ID/g
same,tissue uptake at 72 h,[1]; [3],3.29 ± 0.63 %ID/g
same,tissue uptake at 1 h,"[1]; blood, read-out: uptake Blood",5.36 ± 0.71 %ID/g
same,tissue uptake at 24 h,"[1]; blood, read-out: uptake Blood",0.08 ± 0.01 %ID/g
same,tissue uptake at 48 h,"[1]; blood, read-out: uptake Blood",0.02 %ID/g
same,tissue uptake at 72 h,"[1]; blood, read-out: uptake Blood",0.01 %ID/g
same,tissue uptake at 1 h,"[1]; bone, read-out: uptake Bone",0.66 ± 0.15 %ID/g
same,tissue uptake at 24 h,"[1]; bone, read-out: uptake Bone",0.27 ± 0.08 %ID/g
same,tissue uptake at 48 h,"[1]; bone, read-out: uptake Bone",0.16 ± 0.19 %ID/g
same,tissue uptake at 72 h,"[1]; bone, read-out: uptake Bone",0.19 ± 0.13 %ID/g
same,tissue uptake at 1 h,"[1]; brain, read-out: uptake Brain",0.14 ± 0.01 %ID/g
same,tissue uptake at 24 h,"[1]; brain, read-out: uptake Brain",0.04 ± 0.01 %ID/g
same,tissue uptake at 48 h,"[1]; brain, read-out: uptake Brain",0.02 %ID/g
same,tissue uptake at 72 h,"[1]; brain, read-out: uptake Brain",0.03 %ID/g
same,tissue uptake at 1 h,[1]; [4],1.72 ± 0.46 %ID/g
same,tissue uptake at 24 h,[1]; [4],1.11 ± 0.71 %ID/g
same,tissue uptake at 48 h,[1]; [4],0.71 ± 0.13 %ID/g
same,tissue uptake at 72 h,[1]; [4],1.09 ± 0.61 %ID/g
same,tissue uptake at 1 h,"[1]; heart, read-out: uptake Heart",2.05 ± 0.37 %ID/g
same,tissue uptake at 24 h,"[1]; heart, read-out: uptake Heart",0.71 ± 0.05 %ID/g
same,tissue uptake at 48 h,"[1]; heart, read-out: uptake Heart",0.64 ± 0.06 %ID/g
same,tissue uptake at 72 h,"[1]; heart, read-out: uptake Heart",0.46 ± 0.11 %ID/g
same,tissue uptake at 1 h,[1]; [5],20.9 ± 3.1 %ID/g
same,tissue uptake at 24 h,[1]; [5],12.3 ± 1.24 %ID/g
same,tissue uptake at 48 h,[1]; [5],10.1 ± 1.04 %ID/g
same,tissue uptake at 72 h,[1]; [5],8.84 ± 1.15 %ID/g
same,tissue uptake at 1 h,[1]; [6],6.31 ± 1.86 %ID/g
same,tissue uptake at 4 h,[1]; [6],< 7 %ID/g
same,tissue uptake at 24 h,[1]; [6],3.63 ± 0.09 %ID/g
same,tissue uptake at 48 h,[1]; [6],3.13 ± 0.53 %ID/g
same,tissue uptake at 72 h,[1]; [6],3.01 ± 0.44 %ID/g
same,tissue uptake at 1 h,"[1]; liver, read-out: uptake Liver",1.05 ± 0.05 %ID/g
same,tissue uptake at 4 h,"[1]; liver, read-out: uptake Liver",< 1 %ID/g
same,tissue uptake at 24 h,"[1]; liver, read-out: uptake Liver",0.22 ± 0.01 %ID/g
same,tissue uptake at 48 h,"[1]; liver, read-out: uptake Liver",0.16 ± 0.02 %ID/g
same,tissue uptake at 72 h,"[1]; liver, read-out: uptake Liver",0.12 ± 0.01 %ID/g
same,tissue uptake at 1 h,"[1]; lung, read-out: uptake Lung",2.68 ± 0.21 %ID/g
same,tissue uptake at 24 h,"[1]; lung, read-out: uptake Lung",1.1 ± 0.15 %ID/g
same,tissue uptake at 48 h,"[1]; lung, read-out: uptake Lung",0.68 ± 0.08 %ID/g
same,tissue uptake at 72 h,"[1]; lung, read-out: uptake Lung",0.53 ± 0.1 %ID/g
same,tissue uptake at 1 h,[1]; [7],0.96 ± 0.24 %ID/g
same,tissue uptake at 24 h,[1]; [7],0.52 ± 0.08 %ID/g
same,tissue uptake at 48 h,[1]; [7],0.52 ± 0.03 %ID/g
same,tissue uptake at 72 h,[1]; [7],0.42 ± 0.02 %ID/g
same,tissue uptake at 1 h,[1]; [8],0.92 ± 0.07 %ID/g
same,tissue uptake at 24 h,[1]; [8],0.6 ± 0.11 %ID/g
same,tissue uptake at 48 h,[1]; [8],0.5 ± 0.09 %ID/g
same,tissue uptake at 72 h,[1]; [8],0.36 ± 0.12 %ID/g
same,tissue uptake at 1 h,"[1]; skin, read-out: uptake Skin",2.16 ± 0.35 %ID/g
same,tissue uptake at 24 h,"[1]; skin, read-out: uptake Skin",1.49 ± 0.57 %ID/g
same,tissue uptake at 48 h,"[1]; skin, read-out: uptake Skin",0.95 ± 0.05 %ID/g
same,tissue uptake at 72 h,"[1]; skin, read-out: uptake Skin",1.08 ± 0.16 %ID/g
same,tissue uptake at 1 h,[1]; [9],5.46 ± 0.54 %ID/g
same,tissue uptake at 24 h,[1]; [9],3.02 ± 0.32 %ID/g
same,tissue uptake at 48 h,[1]; [9],1.74 ± 0.22 %ID/g
same,tissue uptake at 72 h,[1]; [9],0.71 ± 0.16 %ID/g
same,tissue uptake at 1 h,[1]; [10],0.75 ± 0.03 %ID/g
same,tissue uptake at 24 h,[1]; [10],0.12 ± 0.01 %ID/g
same,tissue uptake at 48 h,[1]; [10],0.1 ± 0.02 %ID/g
same,tissue uptake at 72 h,[1]; [10],0.1 ± 0.01 %ID/g
same,tissue uptake at 1 h,[1]; [11],9.16 ± 0.58 %ID/g
same,tissue uptake at 24 h,[1]; [11],7.55 ± 1.45 %ID/g
same,tissue uptake at 48 h,[1]; [11],5.49 ± 0.27 %ID/g
same,tissue uptake at 72 h,[1]; [11],4.76 ± 1.22 %ID/g
